Assay results: article PMC2580030 (PLoS ONE, 2008)
Ends that are not written are not given here.

Biological target: recombinant soluble empty (peptide free) HLA-DR1 (human)
Assay: fluorescence polarisation
Details: both partners purified

{FAM}-PVSKMRMATPLLMQA [FAM-CLIP peptide (residues 87-101)]
t1/2: ~1.33 h
